Entries after “also recorded” stand apart in the source; their conditions may differ. Positions of bridges follow the written chain, without caps; N, C: chain ends. Non-standard residues stand in square brackets, D forms with d. Residues, ends and D or L forms follow the SMILES beside them.
Key:
[1] = pooled human plasma from healthy volunteers; conditions: 37 °C, up to 18 h
[2] = molecular target: human CXCL8 (interleukin-8), recombinant, residues 6–77 (human); test: NMR titration
[3] = molecular target: human CXCL8 (interleukin-8), recombinant, residues 6–77 (human); test: SEC; protein alone at 0.1 mg/ml; BioSep SEC-s2000; 50 mM sodium phosphate pH 6.65, 150 mM NaCl; masses from the maker's calibration curve
[4] = system: CXCL8-induced migration of polymorphonuclear neutrophils; test: PMN migration assay (chemotaxis chamber); type: cell-based; conditions: 1 nM CXCL8 plus 10 nM variant; human neutrophils, 5-μm membrane, 90 min at 37 °C; n = 10 (Evasin-3), 9 (tEv3 17–56), 5 (tcEv3 16–56 dPG); CXCL8 alone 624 ± 458, control 98 ± 83
Description: To assess the anti-CXCL8 activity of Evasin-3 variants, polymorphonuclear neutrophil (PMN) migration assays were performed. The addition of 1 nM CXCL8 induced significant migration of PMNs (624 ± 458 PMN/mm^2) compared with controls (98 ± 83 PMN/mm^2) in the absence of chemoattractant (Fig. 6). Migration was inhibited by addition of 10 nM of Evasin-3 (206 ± 203 PMN/mm^2).
Human neutrophils were isolated from the blood of healthy donors as described previously ([57]). Isolated neutrophils were resuspended at (10^6 cells/ml) in RPMI 1640 medium supplemented with 1% fetal calf serum. A 12-well chemotaxis chamber with a 5-μm polycarbonate membrane (Neuroprobe, Gaithersburg, MD) was used to assess the migration of neutrophils toward the chemoattractant CXCL8 (1 nM) in presence or absence of Evasin-3 variants (10 nM). The chemoattractant was added in the lower wells, and the neutrophils (1 × 10^5 cells) were seeded in the upper wells. After incubation of 90 min at 37 °C, the nonmigrated cells were carefully removed, and the membrane was stained with Diff-Quick stain (Eberhard Lehmann GmbH, Berlin, Germany). Migrated cells were visualized by light microscopy, counted manually in three fields of view, and expressed as cells/mm^2. The data were analyzed by GraphPad Prism 8.0 software using one-way analysis of variance statistical test.

[5] = Proteolytic stability in human plasma; type: in vitro ADME; conditions: 100 μg in 100 μl human plasma, 37 °C, stopped with 20% TCA; for degradation in human plasma after 18 h: LC-MS/HPLC
Description: The proteolytic stability of full-length Evasin-3 and its variants was tested in pooled human plasma from healthy volunteers (Fig. S12A).
100 μg of Evasin-3 variants were dissolved in 100 μl of normal plasma taken from a healthy volunteer and incubated at 37 °C. At a required time point reaction was stopped by addition of 15 μl of 20% TCA to a 15-μl aliquot of a sample and analyzed by LC-MS.

[6] = molecular target: T1, chemically synthetized CXCL8-Biotin (C-terminally biotinylated human CXCL8) (human, UniProt P10145 28-99, biotin at the C-terminus); test: SPR; conditions: both partners purified
T1 construct: also called immobilized human CXCL8; source: chemically synthetized; not shown: biotin, C-terminal, kept
T1 sequence (looked up): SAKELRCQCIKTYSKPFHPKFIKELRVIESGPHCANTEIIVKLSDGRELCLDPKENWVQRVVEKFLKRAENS

human CXCL8 = molecular target: T2, human CXCL8 (Homo sapiens, UniProt P10145); test: SPR biosensor affinity to immobilized CXCL8; type: binding; conditions: SPR sensorgrams; association 250 s, dissociation 300 s, 30 μl/min; PBS pH 7.4, 0.05% Tween 20
T2 construct: made in house; host or cells: chemical synthesis (no expression host)
T2 sequence (P10145 21-99): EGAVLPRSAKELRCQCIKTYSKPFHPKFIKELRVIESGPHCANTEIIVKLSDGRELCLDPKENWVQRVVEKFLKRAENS

CXCL8 = conditions: binding to CXCL8; read-out: Kd value previously measured; cited from earlier work
From the text: In contrast to Evasin-1, where both the N and C termini play a crucial role in chemokine binding ([27], [38]), neither the N nor C terminus of Evasin-3 participate in CXCL8 binding. […] To study the effect of termini on binding, we synthesized two novel CXCL8-binding peptides: linear tEv3 17–56 and cyclic tcEv3 16–56 dPG, both retaining the ICK bundled core of the native protein. The ...

[7] = molecular target: human CXCL8 (interleukin-8), recombinant, residues 6–77 (human); test: NMR titration; [15N,13C]CXCL8 (200 μM) titrated with unlabelled met-Evasin-3; 15N-1H HSQC and filtered NOESY; 25 mM NaAc-d3 pH 4.5, 37 °C; equilibrium after up to 1 h
[8] = molecular target: T3, CXCL8–GAG (fondaparinux) complex (Homo sapiens, UniProt P10145); test: GAG competition for [15N,13C]CXCL8 binding by NMR; conditions: 30 μM met-Evasin-3 added to 25 μM [15N,13C]CXCL8 with fondaparinux (up to 10-fold excess), 25 °C, pH 7.1; 15N-1H HSQC
T3 construct: human CXCL8 (UniProt: p10145, 6–77); made in house; host or cells: E. coli BL21 (DE3) Star
T3 sequence (P10145 28-99): T1 sequence (looked up)
From the text: To study competition between Evasin-3 and GAGs for CXCL8 binding, [^15N,^13C]CXCL8 was first titrated with increasing concentrations of dalteparin (Fragmin®, Pfizer) and low-molecular-mass heparin with the average molecular mass of 5 kDa. […] Fondaparinux (Arixtra®, GSK), which comprises the five central sulfated sugar units in heparin, has the well-defined composition and the lower molecular mass (1.7 kDa) comparing with Fragmin. For that reason, fondaparinux facilitates collection of NMR spectra of higher quality and was chosen for further NMR titration experiments. […] Observed changes were consistent with results of previous studies describing the interaction of CXCL8 with several heparin oligosaccharides ([29]).
For GAG-binding experiments low-molecular-mass heparin dalteparin (commercial name Fragmin®, Pfizer) and fondaparinux (commercial name Arixtra®, GSK) were purchased from a pharmacy as solutions for injections. 25 μM of [^15N,^13C]CXCL8 was titrated by increasing concentration of aliquots from a stock solution of 5 mg/ml fondaparinux or Fragmin to the final GAG concentration of 0.2 mM at 25 °C, pH 7.1. In the next step, 30 μM of met-Evasin-3 was added to the solution to monitor the displacement of bound fondaparinux and follow Evasin-3–CXCL8 complex formation by a series of 1D proton and ^15N-^1H HSQC spectra.

LVSTIESRTSGDGADNFDVVSCNKNCTSGQNECPEGCFCGLLGQNKKGHCYKIIGNLSGEPPVVRR
cleaved bond [1]: Arg65-Arg66, 2 h; also recorded: V64-Arg65, 2 h

truncated Evasin-3 (tEv3 17–56) (from UniProt P0C8E8 37-76) (peptide)
stoichiometry N [2]: 1

human CXCL8 (interleukin-8), recombinant, residues 6–77 (natural protein)
stoichiometry N [3]: 2

cyclo(CFCGLLGQNKKGHCYKIIGN[dP]GNFDVVSCNKNCTSGQNECPEG) (disulfide 1-29, 3-33, 14-40) [tcEv3 16–56 dPG]
PMN migration in presence of Evasin-3 variant [4]: 160 ± 65 PMN/mm^2
degradation in human plasma after 18 h [5]: equally high proteolytic stability

CC[C@H](C)[C@H](NC(=O)[C@H](CCCCN)NC(=O)[C@H](Cc1ccc(O)cc1)NC(=O)[C@@H]1CSSC[C@@H]2NC(=O)[C@H](CCC(=O)O)NC(=O)[C@H](CC(N)=O)NC(=O)[C@H](CCC(N)=O)NC(=O)CNC(=O)[C@H](CO)NC(=O)[C@H]([C@@H](C)O)NC(=O)[C@@H]3CSSC[C@H](NC(=O)[C@H](Cc4ccccc4)NC(=O)[C@H](CSSC[C@H](NC(=O)[C@H](CO)NC(=O)[C@@H](NC(=O)[C@@H](NC(=O)[C@H](CC(=O)O)NC(=O)[C@@H](N)Cc4ccccc4)C(C)C)C(C)C)C(=O)N[C@@H](CC(N)=O)C(=O)N[C@@H](CCCCN)C(=O)N[C@@H](CC(N)=O)C(=O)N3)NC(=O)CNC(=O)[C@H](CCC(=O)O)NC(=O)[C@@H]3CCCN3C2=O)C(=O)NCC(=O)N[C@@H](CC(C)C)C(=O)N[C@@H](CC(C)C)C(=O)NCC(=O)N[C@@H](CCC(N)=O)C(=O)N[C@@H](CC(N)=O)C(=O)N[C@@H](CCCCN)C(=O)N[C@@H](CCCCN)C(=O)NCC(=O)N[C@@H](Cc2c[nH]cn2)C(=O)N1)C(=O)N[C@H](C(=O)NCC(=O)N[C@@H](CC(N)=O)C(=O)O)[C@@H](C)CC [tEv3 17–56] (H-FDVVSCNKNCTSGQNECPEGCFCGLLGQNKKGHCYKIIGN-OH; disulfide 6-21, 10-23, 17-34)
degradation in human plasma after 18 h [5]: equally high proteolytic stability

cyclo(NFDVVSCNKNCTSGQNECPEGCFCGLLGQNKKGHCYKIIGN[dP]G) (ends not checked) [truncated cyclic Evasin-3 16–56 with a D-Pro-Gly turn (tcEv3 16–56 dPG)]
Kd [6]: 13 nM

B1: Evasin-3: small salivary chemokine-binding protein from the brown dog tick Rhipicephalus sanguineus (UniProt p0c8e8, 1–66) (protein)
chain: LVSTIESRTSGDGADNFDVVSCNKNCTSGQNECPEGCFCGLLGQNKKGHCYKIIGNLSGEPPVVRR
association and dissociation kinetics compared with truncated variants (human CXCL8): slower association and dissociation kinetics
PMN migration in presence of Evasin-3 variant [4]: 206 ± 203 PMN/mm^2
degradation in human plasma after 2 h ([5]; 2 h, LC-MS): degraded nearly quantitatively
degradation in human plasma after 18 h [5]: only ΔC2 could be detected
Kd (CXCL8): 0.43 nM

B2: met-Evasin-3 (Evasin-3 1–66 with an N-terminal methionine) (natural protein)
chain: MLVSTIESRTSGDGADNFDVVSCNKNCTSGQNECPEGCFCGLLGQNKKGHCYKIIGNLSGEPPVVRR
stoichiometry N [7]: 1
effect on GAG binding of CXCL8 [8]: completely abolished GAG binding

FDVVSCNKNCTSGQNECPEGCFCGLLGQNKKGHCYKIIGN [truncated Evasin-3 (tEv3 17–56)]
Kd [6]: 27 nM

— article PMC6699855 (The Journal of Biological Chemistry, 2019)
